Measurements as given in the DeepSol protein solubility set.

Experiment: soluble on expression in E. coli; label from the status in PepcDB or PDB records

Row | Sequence | soluble on expression in E. coli
1 | GMAKKTLILYYSWSGETKKMAEKINSEIKDSELKEVKVSEGTFDADMYKTSDIALDQIQGNKDFPEIQLDNIDYNNYDLILIGSPVWSGYPATPIKTLLDQMKNYRGEVASFFTSAGTNHKAYVSHFNEWADGLNVIGVARDDSEVDKWSK | soluble
2 | MGSDKIHHHHHHMQIKLSTDGCTDFMFILENTVNHGIIMQPYHSYFVGPMDICSALITLSGTINTFGVRFRPCGLSRFMKISLSELTNIRLSVNDLNTIFSDSFAERLFEEQGIQCKINLIERYLKKHLYKSNHTMDTQISYAVNQINAHEGKISISHLMDEVNLCQRHFERKFKLHTGFTPQKYNSIVKFKNAIKILRNESFDNLLSVAVKAGYYDASHLSREVKKLSGSTPNFFLSLPPDNETTIIYTK | not soluble
3 | GPGSMTALSLALGIHDQATTKFGSKDFCDAVEAEAAAANAHQYRMFLLAMETLLQRQWEHYCFHGGNHITKSQQLEEKRLCRYFSVHCMNMEGRGCRDERKHRKLFGSGAAGPLIDFIYRLICHSHCSIECYPITLALTGRFFVEMRKESVATEYEAAVDHLPCVFAVLLLITAKYRDDNFRSNRYFSQLAELSLMEWNALERLVIRVLRFNVNVPFYEYVAYEKLLLKEMMRQEEKKCGFPSIDQSPRSEKMESLMHLDSKNDMSMLFFDHVEMAMKDNASFHSCGVTASSPSLRSQCPLMSVEDSPVSWRQGV | not soluble
4 | MCMPTKKYTEKFKISLVYLYRKGTSKQTLEDFGVSSASLSRWIKWYDVTDVDLNEAANILQMYELKKQKDKLEAEVLELTKAIQLFNSDLNTVLEHHHHHH | soluble
5 | SGQRPSLPMLATDERSTDKESPNEDREFVPCSSLDVRRIYPKGPLLVLPEKIYLYSEPTVKELLPFDVVINVAEEANDLRMQVPAVEYHHYRWEHDSQIALDLPSLTSIIHAATTKREKILIHSQCGLSRSATLIIAYIMKYHNLSLRHSYDLLKSRADKINPSIGLIFQLMEWEVALNAKT | soluble
6 | QALASDSEEADEVPEWLREGEFVTVGAHKTGVVRYVGPADFQEGTWVGVELDLPSGKNDGSIGGKQYFRCNPGYGLLVRPSRVRRAT | soluble
7 | GSHMSAEASARPLRVGSRVEVIGKGHRGTVAYVGATLFATGKWVGVILDEAKGKNDGTVQGRKYFTCDEGHGIFVRQSQIQVFEDGADTTSPETPDS | soluble
8 | MAIEIPNMIQIGSTGRNSGKTTLAEALIKQYQEVYPIYGLKIITISGQRGVCQRGTKGCGICTSITAGYELVEEQETIGNKDTMKLLAAGCQKVFLLKVFQENLAEAIQQFLKAVPAQALIICESNSLRNVVQPGLFLMMNNQNRQKESAKKVIDKADFCLLSAEIPKKLRIYYQGEQLQVSLKRGNKKECVH | not soluble
9 | MSLQPVPDAGPWGDYLCDSPWALINSSIYAMKEIEPEPDFILWTGDDTPHVPDEKLGEAAVLEIVERLTKLIREVFPDTKVYAALGNHDFHPKNQFPAGSNNIYNQIAELWKPWLSNESIALFKKGAFYCEKLPGPSGAGRIVVLNTNLYYTSNALTADMADPGQQFQWLEDVLTDASKAGDMVYIVGHVPPGFFEKTQNKAWFREGFNEKYLKVVRKHHRVIAGQFFGHHHTDSFRMLYDDAGVPISAMFITPGVTPWKTTLPGVVNGANNPAIRVFEYDRATLSLKEGHHHHHH | not soluble
10 | MNANCSSTAAVICEKKLHRPYSKHCPKHWVYNKETQACYRTISKTNMTILEADNKCFDYGFEHRQDAMLTSIESESENQFVMNLAKEKDANFEFIYLGGYGRSRNGNKWHWMDGSEFNYMNWDRGMPFGRRALAVLVMNKRGKWINHYADKILSQYNAVAVCKFKS | not soluble
11 | MGSDKIHHHHHHMQDSPVVLKVSHVAKSFRLPTEQATGLKMAFLNWTKGIKGYTEQKVLRDIDFEVHRGDFFGVVGRNGSGKSTLLKIISQIYVPDQGSVDVYGKLVPFIELGVGFNPELTGRENVYLNGALLGFSHSEIDAMYDDIVEFAELEEFMDQKLKNYSSGMQVRLAFSVAIKAQGDILVLDEVLAVGDEAFQRKCDAFFKKVQADPNKTVILVTHSMDAVKKYCNKAILIRDGEIVVSGDKNQVADQYTLDNLKGNEPLPEKKKQNGEYAIGLNATVPELKIVPKSDLSTDGKHPFQFDVVYEYKDSGTHYVAVNLLDLKRGGIVYDSGSRTLVQTSSGKHRFALEMPIDMLNSGVYRLYASVRVDDGDSADSETKMVAFTNEANGCVFSINNPDHEDYALLNEKAMIIRKRK | not soluble
